The record followed here is patent US20020058247A1 (TRIPEP, published 2002).

For assay [1], the target named is T1, truncated recombinant form of HBeAg containing nine residues of pre-core and the 150 first residues of HBcAg (hepatitis B virus, UniProt P03146 1-150).
T1 construct: domain: nine residues of pre-core;range 1-150; also called hepatitis B virus e antigen
Nature of the assay: EIA, HBeAg on solid phase, fusion peptide 20 ug/well, gG2 mAb detection.

The target of assay [2] is T2, Full length recombinant HBcAg (rHBcAg) encompassing residues 1-183 (hepatitis B virus, UniProt P03146 1-183).
T2 construct: range 1-183; also called hepatitis B virus core antigen
T2 sequence (P03146 whole entry, the tested form may be a part): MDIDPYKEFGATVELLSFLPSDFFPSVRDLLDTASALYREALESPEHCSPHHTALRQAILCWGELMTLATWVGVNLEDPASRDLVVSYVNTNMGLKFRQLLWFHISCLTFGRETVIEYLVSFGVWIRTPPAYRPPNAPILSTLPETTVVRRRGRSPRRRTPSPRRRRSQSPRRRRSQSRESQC
Briefly: competition EIA, HBcAg coated 1 ug/ml, peptide 100 ug/ml before mAb 4-2 (competitor); OD of bound mAb.

Assay [3] addresses T2, Full length recombinant HBcAg (rHBcAg) …. Nature of the assay: competition EIA, HBcAg coated 1 ug/ml, peptide 12.5 ug/ml before mAb 4-2 (competitor); OD of bound mAb.
Assay [4] shares this target. Nature of the assay: EIA, support-bound peptide, HBcAg 2 ug/well.
The target is the same in assay [5]. Briefly: competition EIA, HBcAg coated 5 ug/ml, peptide 25 ug/ml together with mAb 4-2 (competitor); OD of bound mAb.
For assay [6] the target is unchanged. Briefly: competition EIA, HBcAg coated 1 ug/ml, peptide 6.25 ug/ml before mAb 4-2 (competitor); OD of bound mAb.
The target is the same in assay [7]. Briefly: competition EIA, HBcAg coated 5 ug/ml, peptide 200 ug/ml together with mAb 4-2 (competitor); OD of bound mAb.
Assay [8] shares this target. Briefly: competition EIA, HBcAg coated 5 ug/ml, peptide 12.5 ug/ml together with mAb 4-2 (competitor); OD of bound mAb.
Assay [9] has the same target. Nature of the assay: competition EIA, HBcAg coated 1 ug/ml, peptide 200 ug/ml before mAb 4-2 (competitor); OD of bound mAb.
The target is the same in assay [10]. Nature of the assay: competition EIA, HBcAg coated 1 ug/ml, peptide 50 ug/ml before mAb 4-2 (competitor); OD of bound mAb.
For assay [11] the target is unchanged. Nature of the assay: competition EIA, HBcAg coated 1 ug/ml, peptide 25 ug/ml before mAb 4-2 (competitor); OD of bound mAb.
Assay [12] has the same target. Nature of the assay: competition EIA, HBcAg coated 5 ug/ml, peptide 50 ug/ml together with mAb 4-2 (competitor); OD of bound mAb.
Assay [13] shares this target. Nature of the assay: competition EIA, HBcAg coated 5 ug/ml, peptide 100 ug/ml together with mAb 4-2 (competitor); OD of bound mAb.
For assay [14] the target is unchanged. Briefly: EIA, support-bound peptide, HBcAg 0.2 ug/well.
For assay [15], the target named is T3, non-structural 3 protein (NS3) of the hepatitis C virus (HCV) (hepatitis C virus).
T3 construct: Control antigen; also called HCV NS3
Briefly: EIA, support-bound peptide, HCV NS3 control.

The target of assay [16] is T2, Full length recombinant HBcAg (rHBcAg) …. Briefly: competition EIA, HBcAg coated 5 ug/ml, peptide 6.25 ug/ml together with mAb 4-2 (competitor); OD of bound mAb.
Assay [17] has as its target serum HBeAg in HBeAg-transgenic mice (hepatitis B virus). Briefly: cell-based or functional assay.

Sequence of serum HBeAg in HBeAg-transgenic mice (hepatitis B virus) (P0C573 20-183): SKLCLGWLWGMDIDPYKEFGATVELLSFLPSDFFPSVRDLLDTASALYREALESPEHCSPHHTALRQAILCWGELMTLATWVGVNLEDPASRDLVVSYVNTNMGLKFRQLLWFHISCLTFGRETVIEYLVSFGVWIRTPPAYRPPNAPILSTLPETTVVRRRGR
T1 sequence (P03146 1-150): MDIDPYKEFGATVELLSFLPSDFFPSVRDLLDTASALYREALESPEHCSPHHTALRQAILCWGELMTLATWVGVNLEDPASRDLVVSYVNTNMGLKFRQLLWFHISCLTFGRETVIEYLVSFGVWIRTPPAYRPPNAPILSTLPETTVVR

For KLSCKASGYIFTSRGGPEEFE (also called fusion peptide) [KLSCKASGYIFTSRGGPEEFE (SEQ. ID. No. 72)], in assay [1], the “gG2 mAb binding (OD)” value worked out at 0.04 OD.

With KLSCKASGYIFTSEHRGGPEE (also called fusion peptide) [KLSCKASGYIFTSEHRGGPEE (SEQ. ID. No. 70)], in [1], the “gG2 mAb binding (OD)” value turned out to be 0.022 OD.

Regarding VKLSCKASGYIFTSEHRGGPE (also called fusion peptide) [VKLSCKASGYIFTSEHRGGPE (SEQ. ID. No. 73)], the “gG2 mAb binding (OD)” value in assay [1] came out at 0.029 OD.

For the molecule QQKPGQPPKLLIKYASNLES [QQKPGQPPKLLIKYASNLES (SEQ. ID. No. 19)], the “OD at 490 nm” value is 0.394 OD in assay [2]; 0.391 OD in [3]; 1.24 OD in [5]; 0.336 OD in assay [6]; 0.925 OD in assay [7]; 1.24 OD in [8]. In addition, the “OD at 490 nm” value in assay [9] amounted to 0.368 OD; in assay [10] it was 0.383 OD; in assay [11], 0.406 OD; in assay [12], 1.23 OD; in [13], 1.11 OD; in assay [16], 1.06 OD. The “OD at 405 nm” value in assay [4] is 0.299 OD; in assay [14] it was 0.064 OD; in assay [15], 0.016 OD.

As to VKLSCKASGYIFTSHRGGPEE [VKLSCKASGYIFTSHRGGPEE (SEQ. ID. No. 74)], in [17], the “Fold change in serum HBeAg levels by EIA in HBeAg-Tg mice, day 0” value was 1 fold; the “Fold change in serum HBeAg levels by EIA in HBeAg-Tg mice, day 1” value worked out at 1.5 fold; the “Fold change in serum HBeAg levels by EIA in HBeAg-Tg mice, day 3” value turned out to be 2.3 fold; the “Fold change in serum HBeAg levels by EIA in HBeAg-Tg mice, day 6” value turned out to be 2.3 fold. The “Fold change in serum HBeAg levels by EIA in HBeAg-Tg mice, day 9” value in assay [17] turned out to be 3.3 fold. In addition, the “gG2 mAb binding (OD)” value in assay [1] worked out at 1.73 OD.

Consider VKLSCKASGYIFTSGGPEEFE (also called fusion peptide) [VKLSCKASGYIFTSGGPEEFE (SEQ. ID. No. 76)], for which the “gG2 mAb binding (OD)” value in assay [1] came out at 0.024 OD.

Consider KLSCKASGYIFTSHRGGPEEF (also called fusion peptide) [KLSCKASGYIFTSHRGGPEEF (SEQ. ID. No. 71)], for which, in assay [1], the “gG2 mAb binding (OD)” value was determined as 0.638 OD.
